Experimental findings from IntAct's records for PubMed 31515488 are described below.

B1: Four and a half LIM domains protein 2 (Homo sapiens), Q14192 (parent)
chain: MTERFDCHHCNESLFGKKYILREESPYCVVCFETLFANTCEECGKPIGCDCKDLSYKDRHWHEACFHCSQCRNSLVDKPFAAKEDQLLCTDCYSNEYSSKCQECKKTIMPGTRKMEYKGSSWHETCFICHRCQQPIGTKSFIPKDNQNFCVPCYEKQHAMQCVQCKKPITTGGVTYREQPWHKECFVCTACRKQLSGQRFTARDDFAYCLNCFCDLYAKKCAGCTNPISGLGGTKYISFEERQWHNDCFNCKKCSLSLVGRGFLTERDDILCPDCGKDI
partner: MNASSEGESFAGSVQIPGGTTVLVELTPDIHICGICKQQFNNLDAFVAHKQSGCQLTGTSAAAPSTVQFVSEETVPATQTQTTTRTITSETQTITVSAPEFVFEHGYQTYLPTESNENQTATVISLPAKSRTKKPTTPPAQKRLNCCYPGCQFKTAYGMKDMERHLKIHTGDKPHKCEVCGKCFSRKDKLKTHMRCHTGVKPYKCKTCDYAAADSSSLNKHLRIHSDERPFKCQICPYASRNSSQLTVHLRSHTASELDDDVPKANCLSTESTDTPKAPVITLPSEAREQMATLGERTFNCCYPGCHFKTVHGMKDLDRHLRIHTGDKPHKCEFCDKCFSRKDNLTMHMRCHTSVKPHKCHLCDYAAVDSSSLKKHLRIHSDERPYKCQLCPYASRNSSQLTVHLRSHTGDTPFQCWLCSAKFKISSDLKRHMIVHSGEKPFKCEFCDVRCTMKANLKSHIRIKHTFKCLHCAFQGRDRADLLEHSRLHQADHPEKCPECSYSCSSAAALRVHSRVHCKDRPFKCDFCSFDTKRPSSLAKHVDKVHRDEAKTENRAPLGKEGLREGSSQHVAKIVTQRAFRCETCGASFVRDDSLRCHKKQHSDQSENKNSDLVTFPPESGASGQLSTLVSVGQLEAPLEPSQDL
B2: Keratin, type I cytoskeletal 13 (Homo sapiens), P13646 (parent)
chain: MSLRLQSSSASYGGGFGGGSCQLGGGRGVSTCSTRFVSGGSAGGYGGGVSCGFGGGAGSGFGGGYGGGLGGGYGGGLGGGFGGGFAGGFVDFGACDGGLLTGNEKITMQNLNDRLASYLEKVRALEEANADLEVKIRDWHLKQSPASPERDYSPYYKTIEELRDKILTATIENNRVILEIDNARLAADDFRLKYENELALRQSVEADINGLRRVLDELTLSKTDLEMQIESLNEELAYMKKNHEEEMKEFSNQVVGQVNVEMDATPGIDLTRVLAEMREQYEAMAERNRRDAEEWFHTKSAELNKEVSTNTAMIQTSKTEITELRRTLQGLEIELQSQLSMKAGLENTVAETECRYALQLQQIQGLISSIEAQLSELRSEMECQNQEYKMLLDIKTRLEQEIATYRSLLEGQDAKMIGFPSSAGSVSPRSTSVTTTSSASVTTTSNASGRRTSDVRRP
B3: Tuftelin-interacting protein 11 (Homo sapiens), Q9UBB9 (parent)
chain: MSLSHLYRDGEGRIDDDDDERENFEITDWDLQNEFNPNRQRHWQTKEEATYGVWAERDSDDERPSFGGKRARDYSAPVNFISAGLKKGAAEEAELEDSDDEEKPVKQDDFPKDFGPRKLKTGGNFKPSQKGFAGGTKSFMDFGSWERHTKGIGQKLLQKMGYVPGRGLGKNAQGIINPIEAKQRKGKGAVGAYGSERTTQSMQDFPVVDSEEEAEEEFQKELSQWRKDPSGSKKKPKYSYKTVEELKAKGRISKKLTAPQKELSQVKVIDMTGREQKVYYSYSQISHKHNVPDDGLPLQSQQLPQSGKEAKAPGFALPELEHNLQLLIDLTEQEIIQNDRQLQYERDMVVNLFHELEKMTEVLDHEERVISNLSKVLEMVEECERRMQPDCSNPLTLDECARIFETLQDKYYEEYRMSDRVDLAVAIVYPLMKEYFKEWDPLKDCTYGTEIISKWKSLLENDQLLSHGGQDLSADAFHRLIWEVWMPFVRNIVTQWQPRNCDPMVDFLDSWVHIIPVWILDNILDQLIFPKLQKEVENWNPLTDTVPIHSWIHPWLPLMQARLEPLYSPIRSKLSSALQKWHPSDSSAKLILQPWKDVFTPGSWEAFMVKNIVPKLGMCLGELVINPHQQHMDAFYWVIDWEGMISVSSLVGLLEKHFFPKWLQVLCSWLSNSPNYEEITKWYLGWKSMFSDQVLAHPSVKDKFNEALDIMNRAVSSNVGAYMQPGARENIAYLTHTERRKDFQYEAMQERREAENMAQRGIGVAASSVPMNFKDLIETKAEEHNIVFMPVIGKRHEGKQLYTFGRIVIYIDRGVVFVQGEKTWVPTSLQSLIDMAK
partner: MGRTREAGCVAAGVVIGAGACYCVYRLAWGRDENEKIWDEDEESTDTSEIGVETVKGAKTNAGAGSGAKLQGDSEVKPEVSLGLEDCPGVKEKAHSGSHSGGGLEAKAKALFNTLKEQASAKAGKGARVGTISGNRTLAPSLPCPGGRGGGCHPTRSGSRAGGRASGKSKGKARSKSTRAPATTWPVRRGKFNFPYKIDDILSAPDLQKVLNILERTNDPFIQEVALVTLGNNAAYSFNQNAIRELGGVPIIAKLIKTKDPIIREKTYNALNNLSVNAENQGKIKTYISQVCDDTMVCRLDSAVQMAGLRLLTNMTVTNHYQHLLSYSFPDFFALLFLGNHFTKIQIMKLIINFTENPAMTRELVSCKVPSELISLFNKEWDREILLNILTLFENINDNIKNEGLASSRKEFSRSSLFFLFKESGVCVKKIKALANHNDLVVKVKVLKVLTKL
B4: Methylmalonyl-CoA epimerase, mitochondrial (Homo sapiens), Q96PE7 (parent)
chain: MARVLKAAAANAVGLFSRLQAPIPTVRASSTSQPLDQVTGSVWNLGRLNHVAIAVPDLEKAAAFYKNILGAQVSEAVPLPEHGVSVVFVNLGNTKMELLHPLGRDSPIAGFLQKNKAGGMHHICIEVDNINAAVMDLKKKKIRSLSEEVKIGAHGKPVIFLHPKDCGGVLVELEQA
B5: Syntenin-2 (Homo sapiens), Q9H190 (parent)
chain: MSSLYPSLEDLKVDQAIQAQVRASPKMPALPVQATAISPPPVLYPNLAELENYMGLSLSSQEVQESLLQIPEGDSTAVSGPGPGQMVAPVTGYSLGVRRAEIKPGVREIHLCKDERGKTGLRLRKVDQGLFVQLVQANTPASLVGLRFGDQLLQIDGRDCAGWSSHKAHQVVKKASGDKIVVVVRDRPFQRTVTMHKDSMGHVGFVIKKGKIVSLVKGSSAARNGLLTNHYVCEVDGQNVIGLKDKKIMEILATAGNVVTLTIIPSVIYEHMVKKLPPVLLHHTMDHSIPDA
partner: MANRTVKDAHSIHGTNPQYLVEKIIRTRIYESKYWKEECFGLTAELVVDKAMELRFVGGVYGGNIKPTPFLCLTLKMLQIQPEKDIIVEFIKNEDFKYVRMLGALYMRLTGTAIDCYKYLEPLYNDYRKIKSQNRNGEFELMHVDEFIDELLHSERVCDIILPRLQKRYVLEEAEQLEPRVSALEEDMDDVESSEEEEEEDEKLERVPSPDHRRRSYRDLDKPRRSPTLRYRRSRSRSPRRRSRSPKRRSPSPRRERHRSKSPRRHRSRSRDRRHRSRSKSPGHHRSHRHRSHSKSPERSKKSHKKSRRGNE

The variants in one assay derive from B1. The settings on record: with zf64b_human ZFP64, Q9NTW7.
For A37S, the “effect of a mutation on the interaction” value is on record as “with no effect”.
As for N95K, the “effect of a mutation on the interaction” value was “with no effect”.

In a further assay the parent is B2. As to conditions: with k22e_human KRT2, P35908.
Chain of k22e_human KRT2, P35908 (P35908 whole entry): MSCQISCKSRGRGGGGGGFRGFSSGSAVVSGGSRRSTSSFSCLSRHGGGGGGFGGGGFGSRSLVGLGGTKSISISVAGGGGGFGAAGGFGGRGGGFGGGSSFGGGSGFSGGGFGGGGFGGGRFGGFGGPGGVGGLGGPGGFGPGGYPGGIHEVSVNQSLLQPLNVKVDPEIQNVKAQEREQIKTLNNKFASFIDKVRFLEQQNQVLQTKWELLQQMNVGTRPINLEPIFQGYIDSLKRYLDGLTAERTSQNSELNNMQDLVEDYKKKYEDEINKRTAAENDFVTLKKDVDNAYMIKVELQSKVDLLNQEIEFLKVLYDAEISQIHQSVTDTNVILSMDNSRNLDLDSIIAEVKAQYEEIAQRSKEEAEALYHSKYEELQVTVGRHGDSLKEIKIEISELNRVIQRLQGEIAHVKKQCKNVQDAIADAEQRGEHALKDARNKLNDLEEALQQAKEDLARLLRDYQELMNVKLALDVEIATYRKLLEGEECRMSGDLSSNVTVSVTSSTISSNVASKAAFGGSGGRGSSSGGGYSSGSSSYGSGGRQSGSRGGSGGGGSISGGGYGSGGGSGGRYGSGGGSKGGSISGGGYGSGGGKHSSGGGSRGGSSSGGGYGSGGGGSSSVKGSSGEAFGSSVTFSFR
For the variant R355H, the “effect of a mutation on the interaction” value is “with no effect”.

The variants in the next assay derive from B2. As to conditions: with k2c4_human KRT4, P19013.
Chain of k2c4_human KRT4, P19013 (P19013 whole entry): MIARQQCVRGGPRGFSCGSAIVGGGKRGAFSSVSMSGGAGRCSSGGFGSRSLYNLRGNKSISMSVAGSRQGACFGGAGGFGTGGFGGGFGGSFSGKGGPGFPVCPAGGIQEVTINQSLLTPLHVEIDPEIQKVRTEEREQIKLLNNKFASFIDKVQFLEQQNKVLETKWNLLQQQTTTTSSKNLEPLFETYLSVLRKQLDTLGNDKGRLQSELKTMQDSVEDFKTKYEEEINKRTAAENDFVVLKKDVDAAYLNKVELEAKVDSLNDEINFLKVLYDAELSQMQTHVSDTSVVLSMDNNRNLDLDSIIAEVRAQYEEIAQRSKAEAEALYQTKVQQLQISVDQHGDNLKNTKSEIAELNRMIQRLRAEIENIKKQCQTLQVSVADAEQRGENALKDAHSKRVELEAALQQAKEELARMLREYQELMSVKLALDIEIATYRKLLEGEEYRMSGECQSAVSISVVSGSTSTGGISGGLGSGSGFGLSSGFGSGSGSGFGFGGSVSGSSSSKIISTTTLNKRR
With R355H, the “effect of a mutation on the interaction” value is on record as “with no effect”.

In the next assay the parent is B2. The settings on record: with KRT6A.
As for R355H, the “effect of a mutation on the interaction” value is on record as “with no effect”.

In a further assay the parent is B2. As to conditions: with ccnc_human CCNC.
R355H: the “effect of a mutation on the interaction” value is “with no effect”.

In the next assay the parent is B3. The settings on record: with armx1_human ARMCX1, Q9P291.
In the case of S688L, the “effect of a mutation on the interaction” value was “with no effect”.
Turning to R8Q, the “effect of a mutation on the interaction” value is listed as “with no effect”.

The variants in the next assay derive from B4. As to conditions: with atrap_human AGTRAP.
As to A76V, the “effect of a mutation on the interaction” value is reported as “with no effect”.
For the variant R143H, the “effect of a mutation on the interaction” value is given as “with no effect”.

Variants of B5 are the subject of another assay. The settings on record: with pr38a_human PRPF38A.
Take G225R: the “effect of a mutation on the interaction” value was “disrupting interaction strength”.
Take V182M: the “effect of a mutation on the interaction” value is “with no effect”.
